Results taken from EP3088890B1 (Chugai Seiyaku Kabushiki Kaisha, dated 2020).

T1: GPC3 peptide 1-30 (SEQ ID NO: 1) (human)
T1 construct: Synthetic 30-residue peptide of GPC3
T1 peptide: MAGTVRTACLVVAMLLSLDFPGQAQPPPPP

T2: GPC3 peptide 21-50 (SEQ ID NO: 2) (human)
T2 construct: Synthetic 30-residue peptide of GPC3
T2 peptide: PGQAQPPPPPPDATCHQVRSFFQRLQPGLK

T3: GPC3 peptide 41-70 (SEQ ID NO: 3) (human)
T3 construct: Synthetic 30-residue peptide of GPC3
T3 peptide: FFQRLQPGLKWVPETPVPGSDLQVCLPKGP

T4: GPC3 peptide 61-90 (SEQ ID NO: 4) (human)
T4 construct: Synthetic 30-residue peptide of GPC3
T4 peptide: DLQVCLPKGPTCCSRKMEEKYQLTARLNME

T5: GPC3 peptide 81-110 (SEQ ID NO: 5) (human)
T5 construct: Synthetic 30-residue peptide of GPC3
T5 peptide: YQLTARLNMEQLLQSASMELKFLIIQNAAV

T6: GPC3 peptide 101-130 (SEQ ID NO: 6) (human)
T6 construct: Synthetic 30-residue peptide of GPC3
T6 peptide: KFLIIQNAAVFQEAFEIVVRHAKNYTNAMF

T7: GPC3 peptide 121-150 (SEQ ID NO: 7) (human)
T7 construct: Synthetic 30-residue peptide of GPC3
T7 peptide: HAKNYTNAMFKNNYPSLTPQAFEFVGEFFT

T8: GPC3 peptide 141-170 (SEQ ID NO: 8) (human)
T8 construct: Synthetic 30-residue peptide of GPC3
T8 peptide: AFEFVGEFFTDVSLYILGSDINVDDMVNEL

T9: GPC3 peptide 161-190 (SEQ ID NO: 9) (human)
T9 construct: Synthetic 30-residue peptide of GPC3
T9 peptide: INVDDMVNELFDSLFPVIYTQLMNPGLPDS

T10: GPC3 peptide 181-210 (SEQ ID NO: 10) (human)
T10 construct: Synthetic 30-residue peptide of GPC3
T10 peptide: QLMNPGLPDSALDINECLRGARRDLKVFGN

T11: GPC3 peptide 201-230 (SEQ ID NO: 11) (human)
T11 construct: Synthetic 30-residue peptide of GPC3
T11 peptide: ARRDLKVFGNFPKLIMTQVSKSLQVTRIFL

T12: GPC3 peptide 221-250 (SEQ ID NO: 12) (human)
T12 construct: Synthetic 30-residue peptide of GPC3
T12 peptide: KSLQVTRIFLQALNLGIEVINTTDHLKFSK

T13: GPC3 peptide 241-270 (SEQ ID NO: 13) (human)
T13 construct: Synthetic 30-residue peptide of GPC3
T13 peptide: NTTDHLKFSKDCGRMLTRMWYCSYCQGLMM

T14: GPC3 peptide 261-290 (SEQ ID NO: 14) (human)
T14 construct: Synthetic 30-residue peptide of GPC3
T14 peptide: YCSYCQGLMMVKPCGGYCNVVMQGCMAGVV

T15: GPC3 peptide 281-310 (SEQ ID NO: 15) (human)
T15 construct: Synthetic 30-residue peptide of GPC3
T15 peptide: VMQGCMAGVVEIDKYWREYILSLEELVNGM

T16: GPC3 peptide 301-330 (SEQ ID NO: 16) (human)
T16 construct: Synthetic 30-residue peptide of GPC3
T16 peptide: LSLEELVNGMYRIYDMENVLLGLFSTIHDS

T17: GPC3 peptide 321-350 (SEQ ID NO: 17) (human)
T17 construct: Synthetic 30-residue peptide of GPC3
T17 peptide: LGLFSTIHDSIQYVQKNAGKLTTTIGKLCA

T18: GPC3 peptide 341-370 (SEQ ID NO: 18) (human)
T18 construct: Synthetic 30-residue peptide of GPC3
T18 peptide: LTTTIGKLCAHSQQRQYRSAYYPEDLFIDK

T19: GPC3 peptide 361-390 (SEQ ID NO: 19) (human)
T19 construct: Synthetic 30-residue peptide of GPC3
T19 peptide: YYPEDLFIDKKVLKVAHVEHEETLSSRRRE

T20: GPC3 peptide 381-410 (SEQ ID NO: 20) (human)
T20 construct: Synthetic 30-residue peptide of GPC3
T20 peptide: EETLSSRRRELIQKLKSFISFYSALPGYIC

T21: GPC3 peptide 401-430 (SEQ ID NO: 21) (human)
T21 construct: Synthetic 30-residue peptide of GPC3
T21 peptide: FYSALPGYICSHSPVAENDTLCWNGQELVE

T22: GPC3 peptide 421-450 (SEQ ID NO: 22) (human)
T22 construct: Synthetic 30-residue peptide of GPC3
T22 peptide: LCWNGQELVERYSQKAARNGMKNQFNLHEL

T23: GPC3 peptide 441-470 (SEQ ID NO: 23) (human)
T23 construct: Synthetic 30-residue peptide of GPC3
T23 peptide: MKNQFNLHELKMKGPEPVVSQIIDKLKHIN

T24: GPC3 peptide 461-490 (SEQ ID NO: 24) (human)
T24 construct: Synthetic 30-residue peptide of GPC3
T24 peptide: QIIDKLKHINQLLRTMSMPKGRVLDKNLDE

T25: GPC3 peptide 481-510 (SEQ ID NO: 25) (human)
T25 construct: Synthetic 30-residue peptide of GPC3
T25 peptide: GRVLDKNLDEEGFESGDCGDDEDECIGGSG

T26: GPC3 peptide 501-530 (SEQ ID NO: 26) (human)
T26 construct: Synthetic 30-residue peptide of GPC3
T26 peptide: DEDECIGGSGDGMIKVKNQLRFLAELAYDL

T27: GPC3 peptide 521-550 (SEQ ID NO: 27) (human)
T27 construct: Synthetic 30-residue peptide of GPC3
T27 peptide: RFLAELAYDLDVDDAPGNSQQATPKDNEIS

T28: GPC3 peptide 541-570 (SEQ ID NO: 28) (human)
T28 construct: Synthetic 30-residue peptide of GPC3
T28 peptide: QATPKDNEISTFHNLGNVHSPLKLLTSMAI

T29: GPC3 peptide 551-580 (SEQ ID NO: 29) (human)
T29 construct: Synthetic 30-residue peptide of GPC3
T29 peptide: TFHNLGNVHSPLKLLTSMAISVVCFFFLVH

B1: GT114 antibody (antibody, IgG1, V domains shown)
VH: DVQLQESGPGLVKPSQSLSLTCTVTGYSITSDSAWNWIRQFPGNKLEWMAYIMYSGITSYNPSLKSRISITRDTAKNQFFLQLNSVTTEDSATYYCSRGYWYFDVWGAGTTVTVSS
VL: QIVLTQSPAIMSASLGEEITLTCSASSSVSYMHWYQQKSGTSPKLLIYSTSILASGVPSRFSGSGSGTFYSLTISSVEAEDAADYYCLQWITYRTFGGGTKLEIKR
B2: GT607 antibody (antibody, IgG1, V domains shown)
VH: EVQLVESGGDVVRPGGSLKLSCAASGFTFSSYGMSWVRQLPDKRLEWVASVGNGGSYRYYPENLKGRFTISRDNTKNTLYLQISGLKSEDTAIYYCARRGAFPYFDVWGAGTTVTVSS
VL: QIVLTQSPAIMSASPGEKVTLACSASSSVTYMHWYQQKSGTSPKRWIYETSKLASGVPPRFSGSGSGTSYSLTISTMEAEDAATYYCQQWSSNPLTFGAGTKLELKR

Tests used:
[1] = target: T1, GPC3 peptide 1-30 (SEQ ID NO: 1); assay: peptide ELISA, peptide on plate
[2] = target: T2, GPC3 peptide 21-50 (SEQ ID NO: 2); assay: peptide ELISA, peptide on plate
[3] = target: T3, GPC3 peptide 41-70 (SEQ ID NO: 3); assay: peptide ELISA, peptide on plate
[4] = target: T4, GPC3 peptide 61-90 (SEQ ID NO: 4); assay: peptide ELISA, peptide on plate
[5] = target: T5, GPC3 peptide 81-110 (SEQ ID NO: 5); assay: peptide ELISA, peptide on plate
[6] = target: T6, GPC3 peptide 101-130 (SEQ ID NO: 6); assay: peptide ELISA, peptide on plate
[7] = target: T7, GPC3 peptide 121-150 (SEQ ID NO: 7); assay: peptide ELISA, peptide on plate
[8] = target: T8, GPC3 peptide 141-170 (SEQ ID NO: 8); assay: peptide ELISA, peptide on plate
[9] = target: T9, GPC3 peptide 161-190 (SEQ ID NO: 9); assay: peptide ELISA, peptide on plate
[10] = target: T10, GPC3 peptide 181-210 (SEQ ID NO: 10); assay: peptide ELISA, peptide on plate
[11] = target: T11, GPC3 peptide 201-230 (SEQ ID NO: 11); assay: peptide ELISA, peptide on plate
[12] = target: T12, GPC3 peptide 221-250 (SEQ ID NO: 12); assay: peptide ELISA, peptide on plate
[13] = target: T13, GPC3 peptide 241-270 (SEQ ID NO: 13); assay: peptide ELISA, peptide on plate
[14] = target: T14, GPC3 peptide 261-290 (SEQ ID NO: 14); assay: peptide ELISA, peptide on plate
[15] = target: T15, GPC3 peptide 281-310 (SEQ ID NO: 15); assay: peptide ELISA, peptide on plate
[16] = target: T16, GPC3 peptide 301-330 (SEQ ID NO: 16); assay: peptide ELISA, peptide on plate
[17] = target: T17, GPC3 peptide 321-350 (SEQ ID NO: 17); assay: peptide ELISA, peptide on plate
[18] = target: T18, GPC3 peptide 341-370 (SEQ ID NO: 18); assay: peptide ELISA, peptide on plate
[19] = target: T19, GPC3 peptide 361-390 (SEQ ID NO: 19); assay: peptide ELISA, peptide on plate
[20] = target: T20, GPC3 peptide 381-410 (SEQ ID NO: 20); assay: peptide ELISA, peptide on plate
[21] = target: T21, GPC3 peptide 401-430 (SEQ ID NO: 21); assay: peptide ELISA, peptide on plate
[22] = target: T22, GPC3 peptide 421-450 (SEQ ID NO: 22); assay: peptide ELISA, peptide on plate
[23] = target: T23, GPC3 peptide 441-470 (SEQ ID NO: 23); assay: peptide ELISA, peptide on plate
[24] = target: T24, GPC3 peptide 461-490 (SEQ ID NO: 24); assay: peptide ELISA, peptide on plate
[25] = target: T25, GPC3 peptide 481-510 (SEQ ID NO: 25); assay: peptide ELISA, peptide on plate
[26] = target: T26, GPC3 peptide 501-530 (SEQ ID NO: 26); assay: peptide ELISA, peptide on plate
[27] = target: T27, GPC3 peptide 521-550 (SEQ ID NO: 27); assay: peptide ELISA, peptide on plate
[28] = target: T28, GPC3 peptide 541-570 (SEQ ID NO: 28); assay: peptide ELISA, peptide on plate
[29] = target: T29, GPC3 peptide 551-580 (SEQ ID NO: 29); assay: peptide ELISA, peptide on plate
[30] = target: T30, AW3, C-terminally His-tagged recombinant product of positions 1 to 218 of GPC3 (human, UniProt P51654 25-218); assay: Western blot, pellets of CHO cells expressing the product
T30 construct: Expressed in CHO cells, cell pellets used in Western blot; The range is as printed and starts at position 1; not shown: C-terminal His tag
T30 sequence (P51654 25-218): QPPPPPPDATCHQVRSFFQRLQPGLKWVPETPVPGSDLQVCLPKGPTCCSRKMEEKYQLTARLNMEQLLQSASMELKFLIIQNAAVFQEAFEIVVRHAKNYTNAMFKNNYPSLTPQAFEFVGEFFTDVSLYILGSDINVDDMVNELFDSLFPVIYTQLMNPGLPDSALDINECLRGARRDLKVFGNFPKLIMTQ

Row | Binder | binding result [1] | binding result [2] | binding result [3] | binding result [4] | binding result [5] | binding result [6] | binding result [7] | binding result [8] | binding result [9] | binding result [10] | binding result [11] | binding result [12] | binding result [13] | binding result [14] | binding result [15] | binding result [16] | binding result [17] | binding result [18] | binding result [19] | binding result [20] | other results
1 | B1 | no binding (tested: 2 µg/mL) | no binding (tested: 2 µg/mL) | no binding (tested: 2 µg/mL) | no binding (tested: 2 µg/mL) | no binding (tested: 2 µg/mL) | no binding (tested: 2 µg/mL) | no binding (tested: 2 µg/mL) | no binding (tested: 2 µg/mL) | no binding (tested: 2 µg/mL) | no binding (tested: 2 µg/mL) | no binding (tested: 2 µg/mL) | no binding (tested: 2 µg/mL) | no binding (tested: 2 µg/mL) | no binding (tested: 2 µg/mL) | no binding (tested: 2 µg/mL) | no binding (tested: 2 µg/mL) | no binding (tested: 2 µg/mL) | no binding (tested: 2 µg/mL) | no binding (tested: 2 µg/mL) | no binding (tested: 2 µg/mL) | binding result [21]: no binding (tested: 2 µg/mL); binding result [22]: no binding (tested: 2 µg/mL); binding result [23]: no binding (tested: 2 µg/mL); binding result [24]: no binding (tested: 2 µg/mL); binding result [25]: no binding (tested: 2 µg/mL); binding result [26]: no binding (tested: 2 µg/mL); binding result [27]: no binding (tested: 2 µg/mL); binding result [28]: no binding (tested: 2 µg/mL); binding result [29]: no binding (tested: 2 µg/mL); binding result [30]: no binding
2 | B2 | no binding (tested: 2 µg/mL) | no binding (tested: 2 µg/mL) | no binding (tested: 2 µg/mL) | no binding (tested: 2 µg/mL) | no binding (tested: 2 µg/mL) | no binding (tested: 2 µg/mL) | no binding (tested: 2 µg/mL) | no binding (tested: 2 µg/mL) | no binding (tested: 2 µg/mL) | no binding (tested: 2 µg/mL) | no binding (tested: 2 µg/mL) | no binding (tested: 2 µg/mL) | no binding (tested: 2 µg/mL) | no binding (tested: 2 µg/mL) | no binding (tested: 2 µg/mL) | no binding (tested: 2 µg/mL) | no binding (tested: 2 µg/mL) | no binding (tested: 2 µg/mL) | no binding (tested: 2 µg/mL) | no binding (tested: 2 µg/mL) | binding result [21]: no binding (tested: 2 µg/mL); binding result [22]: no binding (tested: 2 µg/mL); binding result [23]: no binding (tested: 2 µg/mL); binding result [24]: no binding (tested: 2 µg/mL); binding result [25]: no binding (tested: 2 µg/mL); binding result [26]: no binding (tested: 2 µg/mL); binding result [27]: no binding (tested: 2 µg/mL); binding result [28]: no binding (tested: 2 µg/mL); binding result [29]: no binding (tested: 2 µg/mL); binding result [30]: no binding
